Measurements taken from patent US5869336A, “Recombinant enzymatically active calpain expressed in a baculovirus system” (Cephalon, Inc., priority 1997, dated 1999).

T1: recombinant human calpain I (Homo sapiens, UniProt P07384)
T1 construct: the 2153 bp fragment containing the entire human 80 kDa calpain I cDNA; made in house; host or cells: Spodoptera frugiperda Sf21 cells, recombinant baculovirus (AcNPV-hCANPI-2-5, or coinfection with AcNPV-hCANP30-5 and AcNPV-hCANPI80-5)
T1 sequence (P07384 2-714): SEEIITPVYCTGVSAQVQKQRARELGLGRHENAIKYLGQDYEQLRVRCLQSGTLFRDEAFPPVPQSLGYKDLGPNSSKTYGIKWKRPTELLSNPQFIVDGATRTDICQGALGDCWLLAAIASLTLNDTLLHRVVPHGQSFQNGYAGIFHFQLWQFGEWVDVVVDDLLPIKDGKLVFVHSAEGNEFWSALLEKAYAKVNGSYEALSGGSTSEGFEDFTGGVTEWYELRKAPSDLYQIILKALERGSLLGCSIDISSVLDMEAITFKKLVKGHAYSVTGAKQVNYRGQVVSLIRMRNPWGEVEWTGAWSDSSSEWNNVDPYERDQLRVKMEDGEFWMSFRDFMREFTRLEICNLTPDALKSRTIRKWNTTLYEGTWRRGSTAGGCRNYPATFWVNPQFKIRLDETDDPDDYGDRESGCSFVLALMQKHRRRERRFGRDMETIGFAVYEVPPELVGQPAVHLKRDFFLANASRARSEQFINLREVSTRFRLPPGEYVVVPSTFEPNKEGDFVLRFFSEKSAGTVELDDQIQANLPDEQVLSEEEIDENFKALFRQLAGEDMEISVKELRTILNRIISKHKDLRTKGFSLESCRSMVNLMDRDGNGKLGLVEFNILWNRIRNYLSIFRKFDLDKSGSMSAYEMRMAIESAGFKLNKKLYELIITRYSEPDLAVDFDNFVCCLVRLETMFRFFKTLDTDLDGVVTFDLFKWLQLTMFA
T1 sequence (P04632 1-268 partner): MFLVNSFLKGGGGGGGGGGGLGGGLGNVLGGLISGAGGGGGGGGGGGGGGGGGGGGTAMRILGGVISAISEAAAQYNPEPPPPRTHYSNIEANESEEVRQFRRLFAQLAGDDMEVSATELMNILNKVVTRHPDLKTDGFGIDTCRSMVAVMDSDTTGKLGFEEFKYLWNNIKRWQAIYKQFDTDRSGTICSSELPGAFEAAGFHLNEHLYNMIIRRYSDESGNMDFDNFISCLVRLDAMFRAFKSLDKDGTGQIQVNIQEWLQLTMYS

B1: native human calpain I: partially-purified native human calpain I (protein, UniProt P07384 2-714; P04632 1-268, looked up)
Calpain-1 catalytic subunit: T1 sequence (P07384 2-714)
Calpain small subunit 1: T1 sequence (P04632 1-268 partner)
B2: recombinantly produced calpain: recombinant enzymatically active human calpain I, heterodimer of 80 kDa and 30 kDa subunits, expressed in a baculovirus-insect cell system (protein, UniProt P07384 2-714; P04632 1-268, looked up)
Calpain-1 catalytic subunit: T1 sequence (P07384 2-714)
Calpain small subunit 1: T1 sequence (P04632 1-268 partner)
B3: 80 kDa recombinant calpain I: recombinant 80 kDa subunit of human calpain I expressed in Sf21 cells infected with AcNPV-hCANPI80-5 (protein, UniProt P07384 2-714, looked up)
Calpain-1 catalytic subunit: T1 sequence (P07384 2-714)

Columns and labels:
[1] = tested on: native human calpain I; assay: Calcium-dependent protease activity (Succ-Leu-Tyr-AMC), native calpain I; format: biochemical; conditions: 1 mM Succ-Leu-Tyr-AMC, 5 mM CaCl2; FIG. 5a
Description: (§1) Sf21 cells were again seeded in 24 well plates at 1.5×10^5 cells/cm^2 and infected with either wild-type virus, coinfected with both AcNPV-hCANP30-5 and AcNPV-hCANPI80-5 (MOI of 5 for each virus), or infected with AcNPV-hCANPI-2-5 (MOI=5.7). The intracellular proteins were harvested at 40 hours after infection with 100 μl/well of the following lysis buffer: 50 mM Tris-HCl, pH 7.5, 50 mM NaCl, 1 mM EDTA, 1 mM EGTA, 5 mM β-mercaptoethanol, 0.1% Triton-100, followed by a 10 minutes centrifugation at 14,000×g at 4° C. to pellet the nuclei and some membranes. The in vitro enzyme activity of 20 μl of each extract (12.5-20 μg of total protein) was measured using the synthetic peptide substrate succinyl-leucine-tyrosine-aminomethyl coumarin (Succ-Leu-Tyr-AMC) at a 1 mM concentration with and without the addition of 5 mM CaCl2 following the procedure of Sasaki et al., J. Biol. Chem., 259:12489-12494 (1984), incorporated herein by reference. The activity obtained was compared with the enzyme activity of 2 μg of partially-purified native human calpain I produced according to the method of Siman et al., supra.
(§2) The activity in the presence of calcium was also measured with the addition of 12.5 μM calpain inhibitor I following the procedure disclosed in Sasaki et al., supra. The results are depicted in FIGS. 5a-d. In FIGS. 5a-d, open circles represent activity without calcium present. […]

[2] = target: T1, recombinant human calpain I; assay: Calcium-dependent protease activity (Succ-Leu-Tyr-AMC), recombinant calpain in Sf21 cell extracts; format: biochemical
Description: as §1, §2

[3] = tested on: 80 kDa subunit of recombinant calpain I; assay: Autolytic processing of the 80 kDa subunit to the 76 kDa form (immunoblot); format: biochemical, human; conditions: 6.7 mM CaCl2, 5 minutes, room temperature
Description: The 76 kDa form is produced in the presence of calcium by autolytic cleavage and is indicative of active enzyme. Lysates from cells either infected with wild-type AcNPV, coinfected with both AcNPV-hCANP30-5 and AcNPV-hCANPI80-5 or infected with AcNPV-hCANPI-2-5 prepared in Example 5 were incubated with or without the addition of 6.7 mM
CaCl2 for 5 minutes at room temperature, stopping the reaction by adding 6.7 mM EDTA and boiling the samples in SDS-PAGE-gel-loading buffer prior to storage at -70° C. The results of PAGE of the preparations are depicted in FIGS. 6a and b. In FIGS. 6a and b, the presence and absence of calcium is indicated by a "+" or "-", respectively. […] A single band is detected in all the samples incubated with calcium (lanes 2,5, and 7), and it comigrates with the 76 kDa native human calpain I (lane 2) that has also been incubated with calcium.
FIG. 6b contains the results of an immunoblot analysis of the same samples as in 6a except that the AB#34 antibody used was generated against the first five amino acids at the N-terminus of the 76 kDa fragment (anti-LGRHEC); (Saido et al., J. Biochem. 111:81-96 (1992)). […] Both the small amounts of the endogenously-cleaved recombinant calpain I large subunit and the single abundant 76 kDa band after the addition of calcium are detected by this antiserum.

[4] = tested on: recombinant 80 kDa subunit of calpain I; assay: Enzymatic activity of independently expressed 80 kDa subunit (Succ-Leu-Tyr-AMC); format: biochemical, human
Description: as §1
To determine the relative activity of the recombinantly produced 80 kDasubunit, the enzymatic activity of the subunit was examined in unfractionated extracts from Sf21 cells infected with AcNPV-hCANPI80-5. […] The same amount of enzyme activity for both the recombinant 80 kDa subunit and the recombinant calpain was then run on SDS-PAGE and the amount of each was qualitatively determined by immunoblot analysis as described in Example 4 above. As determined therefrom, approximately 4- to 5-fold more isolated 80 kDa protein is needed to give activity equivalent to that of the heterodimeric protein. Thus, the specific activity of the 80 kDa recombinant calpain I was experimentally determined to be approximately 20-25% that of the heterodimeric calpain I. This is approximately seven times greater than that of the 80 kDa subunit dissociated from native calpain I (Kikuchi et al., supra).

| Molecule | calcium-dependent substrate hydrolysis [1] | calcium-dependent substrate hydrolysis ([2]; 1 mM Succ-Leu-Tyr-AMC, 5 mM CaCl2, FIGS. 5c, 5d) | specific activity compared with native calpain ([2]; data not shown) | autocatalytic activation by added calcium [3] | specific activity relative to heterodimeric calpain I ([4]; 80 kDa subunit alone vs recombinant heterodimer) | specific activity relative to 80 kDa subunit dissociated from native calpain I ([4]; comparison with Kikuchi et al.) | amount of protein needed to give activity equivalent to heterodimeric protein ([4]; isolated 80 kDa protein vs heterodimer) |
| --- | --- | --- | --- | --- | --- | --- | --- |
| B1 | calcium-dependent increase in substrate hydrolysis |  |  |  |  |  |  |
| B2 |  | calcium-dependent increase in substrate hydrolysis | similar | correctly autoprocessed the 80 kDa subunit to the "activated" 76 kDa form |  |  |  |
| B3 |  |  |  | entire amount of the 80 kDa subunit recombinant protein is capable of being autocatalytically activated | 20-25% | approximately seven | 4- to 5 fold |
